Reference: publication PMC3575483

Target: Purified native (non-tagged) D. radiodurans DR1245 protein (D. radiodurans)
Test: SEC; Sephacryl S-300 16/60 HR gel filtration column of purified native DR1245

Purified native (non-tagged) D. radiodurans DR1245 protein (natural protein)
stoichiometry N: 2
